# Test results taken from the nanobody polyreactivity screen of Harvey et al. (2022).
# Experiment: yeast display, Sf9 membrane polyspecificity reagent, FACS + sequencing; frameworks hold sequencing errors
# Summary of the method: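 Polyreactivity labels are assigned by the sorting gate from which each nanobody was recovered. The gates were low and high (top ~1%), set on anti-HA fluorescence for expression and streptavidin fluorescence for reagent binding. Before sorting, galactose-induced (36–48 hours) yeast display cells were stained for 1 hour at 4 °C with 10% biotinylated, detergent-solubilized Sf9 membrane reagent.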
row,Sequence,polyreactivity (PSR sort gate)
1,QVQLVESAGVLVQAGGSLRLSCAACGSIFDYYALGWYRQAPGKERELVDTISGGGGTTYYADSVKGRFTISRDNAKNTVYLIMNSLKPEDTAVYYCAADSLGYNYWGQGTQVTVSS,low polyreactivity
2,QVQLVESCGCLVQAGCSLRLSCAASGSTFQGYAMGWYRQAPGKERELVAAITIRGTRTYYADSVKGRFTISRDNAKNTVYLQMNSLKPEDTAVYYCAAYDYRHLEDKYDYWGQGTQVTVSS,high polyreactivity
3,QVQLVESCGGIVQAGGSLRLICAASGRIFDSNAMGWYRQSPGKETELVAAITTSGGSTFYADSVKVRFTISRDNAMNTVYLQMISLKPEDTAVYYCAAGYSFYYHAIFPFDYWGQGNQVTVSS,high polyreactivity
4,QVQLVESCGGLVHAGGSLRLSCAASGRTCVGNVMGWYRQAPGKERELVAAISRSGGNTYYADSVKGRFTISRDNAKNTVYLLMNSLKPEDTAVYYCAKVGLYGPVEYDYWGQGTQVTVSS,high polyreactivity
5,QVQLVESCGGLVQAGGILRLSCAASGFISSENAMGWYRQAPGKERELVAAISSGGSTNYADSVKGRFTISRDNAKNTVYLQMNRLKAEVTAVYYCAATLQGWYHEDESWGQGTQVTVSS,low polyreactivity
6,QVQLVESCGGLVQAGGRLRLSCADYGRTFSWYAMGSYRQAPGKERELVAAITFRGGRTYYADSVKGRFTISRDNAKNTVYIQMNSLKPEDTAVYYFNAVTYSSPYRFDYCGQGTQVTVSS,low polyreactivity
7,QVQLVESCGGLVQAGGSLRISCAASGIIFHLYAMGWYRQAPGKQRELVAAISWNGSSTYYADSVKGRFTISRDYAKNTVYLQRNSLKPEDTAVYYCAASYGYFEDYGYWGHGTQVTVSS,low polyreactivity
8,QVQLVESCGGLVQAGGSLRLICAASGRNFGHNAMGWYRQAPGKEREFVAAITYSGVRTFFADSVKGRFTISRDNAKNTVYLQMNCLKPEDTAVYYCATDWRRYYDYWGQGTQVTVSS,low polyreactivity
9,QVQLVESCGGLVQAGGSLRLSCAASGFIFRIYAMGWYRQAPGKERELVAAITWSGGRTFYADSVKGRFTISRDNAKNTVYLQMNSLKPEDTAVFYCAARGRSSGFGYWGQGTQVTVSS,high polyreactivity
10,QVQLVESCGGLVQAGGSLRLSCAASGFIFRSYAMGWYRKAHGKERELVAAISRSGGSTYYADSVKGRFTISRDNAKNTVYLQMNSLKPEDTAVYYCATDGGRSTARGFGHWGQGTQVTVSS,high polyreactivity
11,QVQLVESCGGLVQAGGSLRLSCAASGFIIGYYAMGWYRQAPGKERELVAAISSTGGSTYYADSVKGRFTISRDNAKNNVYLQMNSLKPEDTAVYYCAKRFAYYRYHPGYDYWGQGTQVTVSS,high polyreactivity
12,QVQLVESCGGLVQAGGSLRLSCAASGFTFWRYAMGWYRQAPGKERELVAAISRTGGRTYYADSVKGRFTISRDNAKNTVYLQMNSLKPEDTAVYYCAAVKYETYRYNYDYWGQGTQVTVSS,high polyreactivity
13,QVQLVESCGGLVQAGGSLRLSCAASGGTIVFYAMGWYRQAPGKERELVAAISSSGGSTYYADSVKGRFTISRDNAKNTVYLQMNSLKPEDTAVYYCNTPSYSGSSPYDHWGQGTQVTVSS,high polyreactivity
14,QVQLVESCGGLVQAGGSLRLSCAASGIIFGVYALGWYRQAPGKERELVAAIDGNGSSTSYADSVKGRFSISRDNAKNTVYLQINSLKPEDTAVYYCAAGYWYYLYYCYDFDYWGQGTQVTVSS,low polyreactivity
15,QVQLVESCGGLVQAGGSLRLSCAASGITIDYYAMGWYRQAPGKERELVAAISSVGNTNYADSVKGRFTISRDNAKNTVYLQMNSLKPEDTAVYYCAARAYGQRLYRVWSGYGYWGQGTQVTVSS,high polyreactivity
16,QVQLVESCGGLVQAGGSLRLSCAASGRIFRDYAMGWYRQAPGKERELVATITRSGGRTYYADSVKGRFTISRDNAKNTVFLQMNSLKPEDTSVYYCAATYWTYPYHYQYKYDYWGQGTQVTVSS,high polyreactivity
17,QVQLVESCGGLVQAGGSLRLSCAASGRNFYFNAMGWYRKAPGKERELVARISTGGITNYADSVKGRFTISRDNAKITVYLQMNSLKPEDTAVYYCAADYRRTWRYNYCGQGTQVTVSS,high polyreactivity
18,QVQLVESCGGLVQAGGSLRLSCAASGSIFPFNAMGWYRQAPGKQRELVAAITRSGGSTYYADSVKGRITISRYIAKNSVYLQMNSLKPQDTAVYYCATDPEWPLPAYYYWGQGTQVTVSS,low polyreactivity
19,QVQLVESCGGLVQAGGSLRLSCAASGSIFQSYAMGWYRQAPGKERELVAAITERGGSTYYADSVKGRFTISRDNAKNTVYLQMNSLKPEDTAVYYCAADIYYWWGLSDLYTPTEGDYWGQGTQVTVSS,low polyreactivity
20,QVQLVESCGGLVQAGGSLRLSCAASGSIFRSFAMGWYREAPWKERELVAAISSGGRTKYADSVKGRFTISRDNAKNTVYLQMNSLKPEDTAVYYCAARVNVKYYGFYYWGQGTQVTVSS,high polyreactivity
21,QVQLVESCGGLVQAGGSLRLSCAASGSIFYFNAMGWYREAPGKERELVAAINISGSSTSYADSVKGRFTISRDNAKNTVYLQMNSLKPEDTAVYYCAAEDEPRILIVRVWDYYWGQGTQVTVSS,low polyreactivity

row,Sequence,polyreactivity (PSR sort gate)
1,QVQLVESCGGLVQAGGSLRLSCAASGSTFTPNAMGWNRQAPGKERELVAAIRGLNGRTYYADSVKGRFTISRDNAKNTVYLQMNSLKPEDTAVYYCAAGGYSYYFAWHDYWGQGTQVTVSS,low polyreactivity
2,QVQLVESCGGLVQAGGSLRLSCAASGSTLYYYAMGWYRQAPGKERELVASISWSGGRTYYADSVKGRFTISRDNAKYTVYLQMNSLKPEDTAVYYCNAVPYRGYDYWGQGTQVTVSS,low polyreactivity
3,QVQLVESCGGLVQAGGSLRLSCAASVSTFLFYAMGWDRQAPRKERELVAAITSGDSTNYADSVKGRFTISRDNAKNTVYLQMNSLKPEDTAVYYCAASRFGAYYWGQGTQVTVSS,high polyreactivity
4,QVQLVESCGGLVQAGGSLRLSCADSGRTIYVNAMGCYRQAPGKERELVARITSGGSTYYADSVKGRFTISRDNAKNTVYLQMNSLTPEDTAVLYCAKKYIGYQDWIHSTRRYDYWGQGTQVTVSS,low polyreactivity
5,QVQLVESCGGLVQAGGSLRLSCADSGYTFTTYVMGWYRQAPGKERELVAAISRRGTSTRYADSVKGRFTISRDNAKNTVYFQMNSLKPEDTAVYYCAARSSVPNRFTRDGYWGQGTQVTVSS,high polyreactivity
6,QVQLVESCGGLVQAGGSLRLSCDASGITFNYNAMGWYRQAPGKERELVARITWSGTRTYYADSVKGRFTISRDNAKNTVYLQMNSLKPEDTAVYYCNAGPYARYYWGQGTQVTVSS,high polyreactivity
7,QVQLVESCGGLVQPGGSLRLSCAASGSILKSYAMGWYRKAPGKERELVAAITYRDGSTYYADSVKGRFTISRDNSKNTVYLQMNSLKPEDTAVYYCAAEPSWWNVFYPGYNYWGQGTQVTVSS,high polyreactivity
8,QVQLVESCGGLVQPGGSLRLSCAASGSTFVNYAMGWYRQAPGKERELVAAITRGVRTYYADSVKGRFTISRDNAKNTVYLQMNSLKAEDTAVYYCNRAIGPYSYPDNYWGQGTQVTVSS,high polyreactivity
9,QVQLVESCVGLVQAGGSLRLSCAASGRIFSRYAMGWYRQAPGKERELVADITWSGGRPYYADSVKGRFTISRDNAKNTVYLQMNSLKPEDTAVYDCAATGGFSWSRDYWGLGTQVTVSS,low polyreactivity
10,QVQLVESDGGLVQAGGSLRLSCAASGSTFNVYAMGWNRQAPGKERELVAAITSGGSTYYADSVKGRFTISRDNANNTVYLQMISQKPEDTAVYYCADDVSLSVFKLDYWGQGTQLTVSS,low polyreactivity
11,QVQLVESDGGLVQAGGSLRLSCAASGSTFTWNAMGWYRQAPGKERELVAAISGDGGSTYYADSVKGRFTISRDNAKNTVYLQMNSLKPEDTAVYYCAASSAHIYSYRYNYWGQGTQVTVSS,low polyreactivity
12,QVQLVESGAGIVQAGGSHRLSCAASGFIFFGYAAMEWYRQAPGKERELVAAISWSGGSTYYADSVKGRFTISRDHAKYTVYLQMNSLKPEDTAVYYCNAVYLKLYPWLDYWGQVTQVTVSS,low polyreactivity
13,QVQLVESGAGIVQAGGSLRLSCAASGLTFKVYAMGWYRQAPGKERELVAAISWSGGSTYYADSVKGRFTISRDNAKNTGYLQRNSLKPEDTAVYYCAVEPSYYVVFFQYDYWGQGTQVTVSS,low polyreactivity
14,QVQLVESGAGIVQAGGSLRLSCAASGSIFRVYAMGWYRQAPWKERELVAAISRTGGSTYYADSVKGRFTISRDNAKNTVYLPMNSLQPEDTAVDYCAARQRYVGYYYWGQGTQVTVSS,high polyreactivity
15,QVQLVESGAGIVQAGGSLRLSCAASGSIFYYNAMGVYRQAPGKERELVAAITSADSTNYADSVKGRFTISRDNAKNTVYLQMNSLKPEDTAVYFCAADFLAALTYYRTYDYWGQGTQVTVSS,low polyreactivity
16,QVQLVESGAGIVQAGGSLRLTCAASGSTFVIYDMGWSRQAPGKERELVAAISYSGGSTYYADSVKGRFTISRDNAKNTVYLQMNSLKPEDTAVYYCAAEVPYYYPGFYSYYDDSDYWGQGTQVTVSS,low polyreactivity
17,QVQLVESGAGLFQAGGRLRISCAPSGFIFVFNAMGWYRQAPGKERELVAAINRGDITNYADSVKGRFTISRDNAKNTVYLQMHSLSPVDTAVYFCAADGEDSLWTGYDYDYWGQGTQVTVST,low polyreactivity
18,QVQLVESGAGLVHAGGSLRLCCAASGRIFNGYSMGWYRQAPGKERELVAGISYSGGSTYYADSVKGRFTISRDNAKNTVYLQMNSQKPEETAVYYCAKRPYYLGNRYRFDYWGQGTQVSVSS,high polyreactivity
19,QVQLVESGAGLVHAGGSLRLSCAAYGRTFLAYAKGWYRQAHGKERELVAAISKSGGRTYYADSVKGRFTISRDYAKHTVYLQMNSLKPEDTAVYYCAADKQAYVTDDYWGQGTQVTVSS,high polyreactivity
20,QVQLVESGAGLVHAGGSLRLSCASSGSIFNVYAMGWYRQAPGKERELVAAIRSSGGSTYYADSVKGRFTISRDKAKNTVNLQMNSLKPEDTAVYYCAAVTRAIRTWRMYYWGQGTQVTVSS,high polyreactivity
